This note sets out measurements from US20190359653A1 (Genentech, published 2019).

The assay addresses hFZD7 CRD-Fc (human, UniProt O75084 33-185). In words: spot phage ELISA. A general note: In an ELISA, binding on a coated surface is turned into a signal by an enzyme label.
VAADALEFWCHVMY [SEQ ID NO 55] came in with a S/N of 54.2 and a S/W of 3.

The molecule VASDDLASWCHAMY [SEQ ID NO 62] yielded a S/N of 53.5 and a S/W of 3.

Turning to APSDDLEAWCDVMY [SEQ ID NO 75], the S/N came to 50.2 and the S/W is 2.7.

In turn, VPSDDLEAWCDVMY [SEQ ID NO 76] showed a S/N of 49.8 and a S/W of 2.7.

For AAADDVASWCHVMY [SEQ ID NO 87], the S/N turned out to be 44.5 and the S/W is 2.3.

The molecule VPADALAVWCDVMY [SEQ ID NO 66] showed a S/N of 53 and a S/W of 2.9.

APSDDVAFWCHVMY [SEQ ID NO 42] returned a S/N of 58.6 and a S/W of 3.1.

Molecule VASDDLASWCHVVY [SEQ ID NO 86] came in with a S/N of 44.8 and a S/W of 2.5.

The molecule APSDDLEFWCHVMY [SEQ ID NO 44] returned a S/N of 58.3 and a S/W of 3.1.

Take AASDDLEAWCHVMY [SEQ ID NO 70]: the S/N was 52.1 and the S/W stood at 3.1.

With APADDLEFWCHVVY [SEQ ID NO 64], the S/N came to 53.2 and the S/W worked out at 3.1.

AAADDLAFWCDVMY [SEQ ID NO 93] came in with a S/N of 8.5 and a S/W of 2.7.

The molecule VPSADLETWCHVMY [SEQ ID NO 83] yielded a S/N of 47.3 and a S/W of 2.8.

Turning to LPSADLESWCHVMY [SEQ ID NO 79], the S/N came out at 48.6 and the S/W worked out at 2.9.

Regarding APADDLEFWCHVMY [SEQ ID NO 72], the S/N turned out to be 51.6 and the S/W worked out at 3.

Take APADDLASWCHVMY [SEQ ID NO 61]: the S/N was found to be 53.5 and the S/W was found to be 3.2.

Turning to AAADDLEVWCHVMY [SEQ ID NO 54], the S/N is 54.4 and the S/W amounted to 3.1.

Molecule PPADDLAFWCDVMY [SEQ ID NO 85] had a S/N of 44.9 and a S/W of 2.9.

Regarding APADDLESWCHVMY [SEQ ID NO 96], the S/N amounted to 53.9 and the S/W worked out at 2.9.

Consider APADDLAFWCDVMY [SEQ ID NO 90], for which the S/N was determined as 33.8 and the S/W is 3.

AAADDLAFWCHVMY [SEQ ID NO 80] returned a S/N of 48.2 and a S/W of 3.1.

APSDDLAAWCHVMY [SEQ ID NO 73] yielded a S/N of 51.3 and a S/W of 3.

In turn, LPADDLAFWCDVMY [SEQ ID NO 92] displayed a S/N of 23.8 and a S/W of 2.8.

For the molecule APSDDLAFWCDVMY [SEQ ID NO 91], the S/N is 27.4 and the S/W turned out to be 3.1.

As for VPSDDLASWCHVMY [SEQ ID NO 68], the S/N was determined as 52.2 and the S/W was 3.1.

APSDDLAAWCHVVY [SEQ ID NO 56] yielded a S/N of 54 and a S/W of 2.9.

In turn, VASDDLEFWCHVMY [SEQ ID NO 58] gave a S/N of 54 and a S/W of 3.2.

With APADDLEAWCHVMY [SEQ ID NO 45], the S/N was 58.1 and the S/W was 3.1.

LASDDLEFWCHVMY [SEQ ID NO 81] showed a S/N of 48.1 and a S/W of 3.

With APSDDLAFWCHVVY [SEQ ID NO 97], the S/N was 45 and the S/W worked out at 2.5.

AASDDLESWCHVMY [SEQ ID NO 50]: the S/N turned out to be 55.6 and the S/W came out at 2.9.

AASDDLAFWCHVMY [SEQ ID NO 77] registered a S/N of 49.7 and a S/W of 3.1.

In turn, APADDVEFWCHVMY [SEQ ID NO 43] came in with a S/N of 58.6 and a S/W of 3.1.

Regarding APADDLAFWCHVMY [SEQ ID NO 51], the S/N worked out at 55.1 and the S/W is 3.

Take VPSDDLAFWCHVMY [SEQ ID NO 65]: the S/N amounted to 53.2 and the S/W worked out at 3.

In turn, VPADDLAFWCHVMY [SEQ ID NO 67] registered a S/N of 52.7 and a S/W of 3.1.

For the molecule LPADDLAVWCDVMY [SEQ ID NO 52], the S/N stood at 54.9 and the S/W amounted to 3.1.

VPSADLESWCHVMY [SEQ ID NO 69] gave a S/N of 52.2 and a S/W of 2.9.

Molecule VPADDLASWCHVMY [SEQ ID NO 63] yielded a S/N of 53.4 and a S/W of 3.1.

As to VPADDLASWCDVMY [SEQ ID NO 78], the S/N stood at 49.2 and the S/W was found to be 2.9.

In the case of APSDDLASWCHVMY [SEQ ID NO 71], the S/N was found to be 52 and the S/W was determined as 3.3.

Regarding AAADDLAAWCDVMY [SEQ ID NO 57], the S/N came out at 54 and the S/W was found to be 3.1.

AAADDLEFWCHVMY [SEQ ID NO 48] returned a S/N of 56.1 and a S/W of 3.1.

For APADDLEFWCHAMY [SEQ ID NO 89], the S/N is 36.3 and the S/W came to 1.9.

Turning to LPSDDLESWCHVMY [SEQ ID NO 53], the S/N turned out to be 54.5 and the S/W came out at 3.

Molecule VAADDLAFWCDVMY [SEQ ID NO 88] registered a S/N of 40.7 and a S/W of 3.

In turn, APADDLAFWCHVVY [SEQ ID NO 74] came in with a S/N of 50.6 and a S/W of 3.2.

Consider APSDDLEFWCHAMY [SEQ ID NO 46], for which the S/N came to 57.2 and the S/W was 3.1.

In turn, AASDDLAAWCHVMY [SEQ ID NO 49] registered a S/N of 55.7 and a S/W of 3.

As for VASDDLEAWCHVMY [SEQ ID NO 47], the S/N was 57 and the S/W is 3.1.

Turning to LPAADLAAWCHVMY [SEQ ID NO 82], the S/N was 48 and the S/W came out at 3.

LPADDLAAWCHVMY [SEQ ID NO 84] came in with a S/N of 46.7 and a S/W of 3.1.

AAADDLEAWCAVMY [SEQ ID NO 59] yielded a S/N of 53.6 and a S/W of 3.1.

As for VAADDLAAWCHVMY [SEQ ID NO 39], the S/N is 60.7 and the S/W turned out to be 3.4.

As for LAADDLESWCHVMY [SEQ ID NO 60], the S/N came out at 53.5 and the S/W came to 3.
